The text below walks through data of publication PMC5493634, “Intermolecular steric inhibition of Ephexin4 is relieved by Elmo1” (Scientific Reports, 2017).

The series deals with the molecule itself. Nature of the series: cross-linking; 293T cells transfected with Ephexin4-FLAG, cells incubated with or without 0.25 mM BMH (PBS pH 7.3, 5 mM EDTA) at room temperature for 1 h, then lysed; anti-FLAG immunoblot (Fig. 2d). A general note: Immunoblotting shows a protein as a band on a membrane.

B1: Ephexin4 (full-length, wild type) (natural protein, UniProt Q5VV41 1-709, looked up)
chain: MAQRHSDSSLEEKLLGHRFHSELRLDAGGNPASGLPMVRGSPRVRDDAAFQPQVPAPPQPRPPGHEEPWPIVLSTESPAALKLGTQQLIPKSLAVASKAKTPARHQSFGAAVLSREAARRDPKLLPAPSFSLDDMDVDKDPGGMLRRNLRNQSYRAAMKGLGKPGGQGDAIQLSPKLQALAEEPSQPHTRSPAKNKKTLGRKRGHKGSFKDDPQLYQEIQERGLNTSQESDDDILDESSSPEGTQKVDATIVVKSYRPAQVTWSQLPEVVELGILDQLSTEERKRQEAMFEILTSEFSYQHSLSILVEEFLQSKELRATVTQMEHHHLFSNILDVLGASQRFFEDLEQRHKAQVLVEDISDILEEHAEKHFHPYIAYCSNEVYQQRTLQKLISSNAAFREALREIERRPACGGLPMLSFLILPMQRVTRLPLLMDTLCLKTQGHSERYKAASRALKAISKLVRQCNEGAHRMERMEQMYTLHTQLDFSKVKSLPLISASRWLLKRGELFLVEETGLFRKIASRPTCYLFLFNDVLVVTKKKSEESYMVQDYAQMNHIQVEKIEPSELPLPGGGNRSSSVPHPFQVTLLRNSEGRQEQLLLSSDSASDRARWIVALTHSERQWQGLSSKGDLPQVEITKAFFAKQADEVTLQQADVVLVLQQEDGWLYGERLRDGETGWFPEDFARFITSRVAVEGNVRRMERLRVETDV
notes: Ephexin4, guanine nucleotide-exchange factor for RhoG; full-length; also called Epx4; Ephexin4-FLAG
The stoichiometry N is the number of molecules, sites or subunits per partner or assembly. Regarding B1, the “stoichiometry N” value came out at 3.
